Test results taken from paper PMC3093129 (Biochemistry, 2011).

Molecular target: the molecule itself
Test: AUC

B1: Liprin-β2 coiled-coil mutant C145S (complete coiled-coil construct, residues S100 through E315) (domain or fragment, human)
chain: MEKTRSAASNETYQERLARLEGDKESLILQVSVLTDQVEAQGEKIRDLEVSLEGHQVKLNAAEEMLQQELLSRTSLETQKLDLMTEVSELKLKLVGMEKEQREQEEKQRKAEELLQELRHLKIKVEELENERNQYEWKLKATKAEVAQLQEQVALKDAEIERLHSQLSRTAALHSESHTERDQEIQRLKMGMETLLLANEDKDRRIEELTGLLNQYRKVKE
- stoichiometry N: 2
